# According to patent US20210087268A1 (YUHAN, published 2021):
# T1: CD112 (R&D Systems) (UniProt Q92692 32-360, limits assumed)
# T1 sequence (looked up): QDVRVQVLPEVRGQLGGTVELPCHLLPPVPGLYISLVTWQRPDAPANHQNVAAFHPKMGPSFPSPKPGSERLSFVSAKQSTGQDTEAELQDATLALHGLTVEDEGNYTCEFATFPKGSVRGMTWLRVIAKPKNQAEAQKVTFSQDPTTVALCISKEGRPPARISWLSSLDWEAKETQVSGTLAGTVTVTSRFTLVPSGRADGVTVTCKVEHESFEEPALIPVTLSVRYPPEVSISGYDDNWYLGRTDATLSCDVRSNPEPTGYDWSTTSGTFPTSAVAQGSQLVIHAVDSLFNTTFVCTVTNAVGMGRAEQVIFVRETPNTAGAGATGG
# T2: CD226 (R&D Systems) (UniProt Q15762 19-247, limits assumed)
# T2 sequence (looked up): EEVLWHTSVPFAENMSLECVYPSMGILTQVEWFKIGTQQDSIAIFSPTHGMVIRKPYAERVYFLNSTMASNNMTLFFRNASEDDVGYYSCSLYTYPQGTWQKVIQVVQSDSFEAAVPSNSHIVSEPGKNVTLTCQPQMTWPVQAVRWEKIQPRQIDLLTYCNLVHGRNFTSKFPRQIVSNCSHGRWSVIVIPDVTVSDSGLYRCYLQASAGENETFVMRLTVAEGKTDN
# T3: CD96 (Sinobiological) (UniProt P40200-2 22-503, limits assumed)
# T3 sequence (looked up): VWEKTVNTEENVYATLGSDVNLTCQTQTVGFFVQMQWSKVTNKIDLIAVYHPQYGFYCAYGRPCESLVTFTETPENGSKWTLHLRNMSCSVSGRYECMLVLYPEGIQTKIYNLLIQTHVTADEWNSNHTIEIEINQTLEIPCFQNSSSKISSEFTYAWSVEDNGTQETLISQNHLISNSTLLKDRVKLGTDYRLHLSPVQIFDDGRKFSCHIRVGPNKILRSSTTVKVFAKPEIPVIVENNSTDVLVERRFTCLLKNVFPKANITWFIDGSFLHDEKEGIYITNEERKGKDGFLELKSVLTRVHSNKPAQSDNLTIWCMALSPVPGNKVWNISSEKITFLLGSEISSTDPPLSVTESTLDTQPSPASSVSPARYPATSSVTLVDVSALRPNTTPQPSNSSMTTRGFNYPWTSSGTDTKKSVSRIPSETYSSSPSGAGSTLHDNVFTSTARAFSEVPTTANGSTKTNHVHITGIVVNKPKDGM
# T4: CD155 (Sinobiological), ELISA antigen (UniProt P15151 21-343)
# T4 sequence (looked up): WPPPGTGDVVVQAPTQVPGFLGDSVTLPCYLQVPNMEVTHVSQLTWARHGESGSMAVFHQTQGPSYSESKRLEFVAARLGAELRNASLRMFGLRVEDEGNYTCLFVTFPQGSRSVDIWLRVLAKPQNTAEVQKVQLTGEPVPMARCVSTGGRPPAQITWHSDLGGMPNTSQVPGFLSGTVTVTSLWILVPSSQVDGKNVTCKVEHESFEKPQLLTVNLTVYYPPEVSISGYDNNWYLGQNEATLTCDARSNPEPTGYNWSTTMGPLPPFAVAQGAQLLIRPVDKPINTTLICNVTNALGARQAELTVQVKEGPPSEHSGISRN
# T5: mouse TIGIT (R & D Systems), ELISA antigen (mouse, UniProt P86176 29-148, limits assumed)
# T5 sequence (looked up): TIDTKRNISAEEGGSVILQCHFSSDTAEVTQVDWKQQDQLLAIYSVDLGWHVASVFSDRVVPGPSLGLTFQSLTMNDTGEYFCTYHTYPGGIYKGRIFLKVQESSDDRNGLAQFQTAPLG
# B1: F04 (IgG1 form) (antibody, V domains shown)
# VH: EVQLLESGGGLVQPGGSLRLSCAASGFTFSSYYMSWVRQAPGKGLEWVSSIGSYYTYYADSVKGRFTISRDNSKNTLYLQMNSLRAEDTAVYYCARSSYSGGNGYYYYAYAFDYWGQGTLVTVSS
# VL: EIVLTQSPGTLSLSPGERATLSCRASQSVSSSYLAWYQQKPGQAPRLLIYGASSRATGIPDRFSGSGSGTDFTLTISRLEPEDFAVYYCQQGYHRYATFGQGTKVEIK
# B2: S64 (IgG1 form) (antibody, V domains shown)
# VH: EVQLLESGGGLVQPGGSLRLSCAASGFTFSNYAMSWVRQAPGKGLEWVSAIYPGGGSIYYADSVKGRFTISRDNSKNTLYLQMNSLRAEDTAVYYCAKAIRTCSLSHCYYYYGMDVWGQGTLVTVSS
# VL: QSVLTQPPSASGTPGQRVTISCSCSSSNIGNNAVSWYQQLPGTAPKLLIYYDSNRPSGVPDRFSGSKSGTSASLAISGLRSEDEADYYCGSWDYSLSAYVFGGGTKLTVLG
# Experiments:
# [1] = biological target: T1, CD112 (R&D Systems); assay: ELISA, antigen coated at 100 ng/well, 30 ng antibody per well (one amount), absorbance 450 nm
# Experimental: (§1) The binding of the anti-TIGIT antibodies to TIGIT superfamilies such as CD96 (Sinobiological), CD155 (Sinobiological), CD112 (R&D Systems), CD113 (R&D Systems) and CD226 (R&D Systems) antigens was identified by ELISA in order to determine the TIGIT specificity of the anti-TIGIT antibodies screened by phage display screening. Six types of antigens including TIGIT were coated at 100 ng/well on a 96-well plate, treated with 30 ng of each screened antibody and incubated at room temperature for 1 hour. After washing three times with TBST, 30 μL of TBST (5% BSA) diluted at 1:3,000 with an anti-human Fab-HRP secondary antibody (Jackson) was added to each well and incubated at room temperature for 1 hour. After washing three times with TBST, 30 μL of the resulting TMB solution was added to each well. After ceasing the reaction with 1N H₂SO₄, color development was determined at an absorbance of 450 nm. The binding of the selected antibodies to the six antigens was identified. As a result, it can be seen that all the antibodies specifically bound only to the TIGIT antigen (FIG. 2).
# [2] = biological target: T2, CD226 (R&D Systems); assay: as above
# Experimental: as §1
# [3] = biological target: CD113 (R&D Systems) (UniProt Q9NQS3 58-404, limits assumed); assay: as above
# Chain of CD113 (R&D Systems) (Q9NQS3 58-404 limits assumed): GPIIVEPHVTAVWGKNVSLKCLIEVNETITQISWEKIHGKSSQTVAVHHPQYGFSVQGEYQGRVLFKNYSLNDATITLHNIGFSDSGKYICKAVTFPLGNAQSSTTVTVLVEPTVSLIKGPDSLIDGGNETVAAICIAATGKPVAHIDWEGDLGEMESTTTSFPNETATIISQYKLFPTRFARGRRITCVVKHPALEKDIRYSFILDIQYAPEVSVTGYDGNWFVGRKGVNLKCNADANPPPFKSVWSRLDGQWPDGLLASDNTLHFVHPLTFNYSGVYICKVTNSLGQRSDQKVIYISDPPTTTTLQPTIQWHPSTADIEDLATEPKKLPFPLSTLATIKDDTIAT
# Experimental: as §1
# [4] = biological target: T3, CD96 (Sinobiological); assay: as above
# Experimental: as §1
# [5] = biological target: T4, CD155 (Sinobiological), ELISA antigen; assay: as above
# Experimental: as §1
# [6] = biological target: T5, mouse TIGIT (R & D Systems), ELISA …; assay: ELISA, antigen coated on the plate, 30 ng antibody per well (one amount), absorbance 450 nm
# Text: In order to determine the species cross-reactivity of the anti-TIGIT antibodies screened by phage display screening, whether or not the anti-TIGIT antibodies bound to human TIGIT (R&D Systems), mouse TIGIT (R & D Systems) and rhesus TIGIT antigens was identified by ELISA. The rhesus TIGIT antigens used herein were expressed and purified in the form of Fc-fusion by gene synthesis with reference to the Rhesus TIGIT gene sequence (NCBI accession No. XP_014985303.1). Each of three types of the TIGIT antigens diluted at a concentration of […] in PBS was added at 30 μl/well to a 96-well plate and incubated overnight at 4° C. to induce coating. Then, 30 ng of the screened antibody was bound to the TIGIT antigen, and 30 μL of a TBST (5% BSA) solution diluted at 1:3,000 was added to each well and incubated at room temperature for 1 hour. After washing three times with TBST, 30 μL of the TMB solution was added to each well to induce color development. After ceasing the reaction with 1N H₂SO₄, color development was determined at an absorbance of 450 nm. The species cross-reactivity of the screened antibodies bound to […] of antigens was identified (FIG. 1).
Binder,binding result [1],binding result [2],binding result [3],binding result [4],binding result [5],binding result [6]
B1,no binding (tested: 30 ng per well),no binding (tested: 30 ng per well),no binding (tested: 30 ng per well),no binding (tested: 30 ng per well),no binding (tested: 30 ng per well),binds
B2,no binding (tested: 30 ng per well),no binding (tested: 30 ng per well),no binding (tested: 30 ng per well),no binding (tested: 30 ng per well),no binding (tested: 30 ng per well),binds
